Laboratory results: patent US20210403538A1

What was measured:
[1] = biological target: MARV GP [change] (Lake Victoria marburgvirus) (UniProt Q1PD50)
[2] = biological target: SUDV GP [change] (Sudan ebolavirus) (UniProt Q7T9D9)
[3] = biological target: BDBV GP [change] (Bundibugyo ebolavirus (BDBV), strain 200706291 Uganda); assay: ELISA, coated recombinant GP ΔTM
[4] = biological target: EBOV GP [change] (Zaire ebolavirus (EBOV), strain Makona); assay: ELISA, coated recombinant GP ΔTM
[5] = biological target: SUDV GP [change] (Sudan ebolavirus (SUDV), strain Gulu) (UniProt Q7T9D9); assay: ELISA

4G7 (antibody)
EC50 [1]: > 10 µg/mL | EC50 [2]: > 10 µg/mL | EC50 [3]: > 10 µg/mL | EC50 [4]: 0.018 µg/mL

rEBOV-520 LALA
EC50 [5]: 0.377 µg/mL

KZ52 (antibody)
EC50 [1]: > 10 µg/mL | EC50 [2]: > 10 µg/mL | EC50 [3]: > 10 µg/mL | EC50 [4]: 0.014 µg/mL
